# Test results from IntAct's records for PubMed 18034774.
# B1: Ras-related protein Rab-5A (Homo sapiens), P20339 (parent)
# chain: MASRGATRPNGPNTGNKICQFKLVLLGESAVGKSSLVLRFVKGQFHEFQESTIGAAFLTQTVCLDDTTVKFEIWDTAGQERYHSLAPMYYRGAQAAIVVYDITNEESFARAKNWVKELQRQASPNIVIALSGNKADLANKRAVDFQEAQSYADDNSLLFMETSAKTSMNVNEIFMAIAKKLPKNEPQNPGANSARGRGVDLTEPTQPTRNQCCSN
# partner: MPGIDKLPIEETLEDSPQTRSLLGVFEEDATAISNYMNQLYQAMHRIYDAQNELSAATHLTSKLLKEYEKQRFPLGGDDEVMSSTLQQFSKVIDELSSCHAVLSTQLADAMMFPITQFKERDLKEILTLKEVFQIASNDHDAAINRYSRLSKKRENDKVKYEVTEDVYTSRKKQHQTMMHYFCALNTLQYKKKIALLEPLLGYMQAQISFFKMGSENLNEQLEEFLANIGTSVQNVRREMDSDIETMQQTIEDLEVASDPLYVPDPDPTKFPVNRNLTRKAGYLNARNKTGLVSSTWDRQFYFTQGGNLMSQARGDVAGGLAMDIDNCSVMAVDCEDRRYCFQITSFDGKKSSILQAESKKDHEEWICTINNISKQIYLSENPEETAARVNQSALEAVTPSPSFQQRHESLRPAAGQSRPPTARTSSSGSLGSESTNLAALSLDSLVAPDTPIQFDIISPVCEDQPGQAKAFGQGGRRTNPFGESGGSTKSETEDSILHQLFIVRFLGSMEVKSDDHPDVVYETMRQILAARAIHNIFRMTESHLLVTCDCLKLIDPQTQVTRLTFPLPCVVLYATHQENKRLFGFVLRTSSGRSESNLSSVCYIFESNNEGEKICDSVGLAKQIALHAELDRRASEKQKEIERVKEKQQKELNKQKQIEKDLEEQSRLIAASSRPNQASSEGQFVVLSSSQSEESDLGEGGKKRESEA
# Variants of: B1
# Conditions: with dp13a_human APPL1, Q9UKG1
row,Variant,effect of a mutation on the interaction
1,S34N,disrupting interaction strength
